The assay has as its target constitutively active mutant (CAM) Asn119Ser CXCR4 receptor (human) (UniProt P61073). In words: cell-based or functional assay.

constitutively active mutant (CAM) Asn119Ser CXCR4 receptor (human), sequence (P61073 whole entry N119S): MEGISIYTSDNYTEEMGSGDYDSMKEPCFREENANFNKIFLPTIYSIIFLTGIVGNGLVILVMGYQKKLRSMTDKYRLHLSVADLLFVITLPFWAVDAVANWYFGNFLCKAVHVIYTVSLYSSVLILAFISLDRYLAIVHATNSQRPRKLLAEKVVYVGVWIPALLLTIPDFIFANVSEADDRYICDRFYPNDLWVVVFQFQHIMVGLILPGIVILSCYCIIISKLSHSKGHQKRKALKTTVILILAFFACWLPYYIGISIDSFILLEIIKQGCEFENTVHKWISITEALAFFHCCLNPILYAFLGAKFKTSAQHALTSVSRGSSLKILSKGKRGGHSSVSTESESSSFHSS

Consider T140 (peptide), for which the inhibition of SDF-1-stimulated [35S]GTPγS binding is -159% and the inhibition of basal [35S]GTPγS binding was -17%.

The record behind these values is patent US20110020218A1.
